Measured values published in patent US20140302055A1.

Tests used:
[1] = target: Angiopoietin-like protein 4 (ANGPTL4), recombinant V5-his tagged secreted product (UniProt Q9BY76); assay: SPR (BiaCore) low resolution, mAb captured on goat anti-human surface, ANGPTL4 at 292 nM, 25 C
[2] = target: Angiopoietin-like protein 4 (ANGPTL4), recombinant V5-his tagged secreted product (UniProt Q9BY76); assay: SPR (BiaCore 2000) medium resolution, mAb captured on goat anti-human surface, ANGPTL4 6-198 nM (593 nM left out of the fit), 1:1 model with mass transport

| Kd [1] [nM] | koff [1] [s⁻¹] | kon [1] [M⁻¹ s⁻¹] | Kd [2] [nM] | koff [2] [s⁻¹] | kon [2] [M⁻¹ s⁻¹] | Binder |
| --- | --- | --- | --- | --- | --- | --- |
| 15 | 0.00071 | 49000 |  |  |  | anti-ANGPTL4 monoclonal antibody 1.3.1 (antibody, part only; not given: light chain, human IgG2, V domains shown, part only) VH: EVQLVESGGGLIQPGGSLRLSCAASGFTVSTNYMSWVRQAPGKGLDWVSIIYSDDNTYYADSVKGRFTISRDNSKNTLYLQMNSLRAEDSAVYYCAGTGTTDYYYGLDVWGLGTTVTVSSA |
| 16 | 0.0011 | 67000 | 7.9 | 0.000786 | 99800 | anti-ANGPTL4 monoclonal antibody 1.7.3 (antibody, human IgG2, V domains shown) VH: QVQLVESGGGVVQPGRSLRLSCAASGFTFSSYGIHWIRQAPGKGLEWVAVIWYDGSHKYYADSVKGRFTISRDNSKNTLYLQMNSLRAEDTAVYYCARDGITMVRGVLYYFYGMDVWGQGTTVTVSS VL: DIQMTQSPSSLSASVGDRVTITCRASQGISNYLAWYQQKPGKVPKLLIYAASTLQSGVPSRFSGSGSGTDFTLTISSLQPEDFATYYCQEFNSAPLTFGGGTKVEIKR |
| 11 | 0.00068 | 63000 |  |  |  | anti-ANGPTL4 monoclonal antibody 1.10.2 (antibody, human IgG2, V domains shown) VH: QVQLVQSGAEVKKPGASVKDSCKASGFTFTSYGISWVRQAPGQGLEWMGWISAYNGNKNYAQKLQGRVTMTTDTSTSTAYMELRSLRSDDTAVYYCARDDCSRASCSYYYGMDVWGQGTAVTVSS VL: DIVMTQTPLSLAVTPGQPASISCKSSQSLLHSDRKTYLYWYLQKPGQPPQLLIYEVSNRFSGVPDRFSGSGSGTDFTLKISRVEAEDVGVYYCMQSIQLPWTFGQGTKVEIKR |
